Assay results published in paper PMC8303269, “ERα36–GPER1 Collaboration Inhibits TLR4/NFκB-Induced Pro-Inflammatory Activity in Breast Cancer Cells” (International Journal of Molecular Sciences, 2021).

Molecular target: T1, G-protein Estrogen Receptor 1 (GPER1) (human (endogenous in SKBR3), UniProt Q99527 1-375)
T1 construct: Endogenous protein precipitated and detected with mouse monoclonal anti-human GPER1 (clone 2F2); also called GPR30; source: endogenous, SKBR3 cells (fixed cells; whole-cell extract)
T1 sequence (Q99527 whole entry): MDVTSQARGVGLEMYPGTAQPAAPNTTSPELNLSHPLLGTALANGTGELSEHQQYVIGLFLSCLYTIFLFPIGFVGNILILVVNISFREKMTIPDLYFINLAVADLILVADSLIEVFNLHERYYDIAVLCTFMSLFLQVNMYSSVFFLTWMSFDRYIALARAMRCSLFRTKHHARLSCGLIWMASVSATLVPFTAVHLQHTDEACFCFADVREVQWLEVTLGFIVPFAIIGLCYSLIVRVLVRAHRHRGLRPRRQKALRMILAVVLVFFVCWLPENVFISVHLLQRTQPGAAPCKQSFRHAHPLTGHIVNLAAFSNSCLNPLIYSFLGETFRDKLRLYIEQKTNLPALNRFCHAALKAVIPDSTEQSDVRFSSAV
Experiment: proximity ligation; Duolink In Situ, bright field; fixed SKBR3 cells, endogenous proteins; rabbit polyclonal anti-ERα36 and mouse monoclonal anti-GPER1; cells treated with E2 (10^-7 M) and/or LPS
Conditions: partners not purified

B1: estrogen receptor alpha 36 (ERα36) (receptor, human (endogenous in SKBR3), UniProt P03372-4 1-310, looked up)
chain: MAMESAKETRYCAVCNDYASGYHYGVWSCEGCKAFFKRSIQGHNDYMCPATNQCTIDKNRRKSCQACRLRKCYEVGMMKGGIRKDRRGGRMLKHKRQRDDGEGRGEVGSAGDMRAANLWPSPLMIKRSKKNSLALSLTADQMVSALLDAEPPILYSEYDPTRPFSEASMMGLLTNLADRELVHMINWAKRVPGFVDLTLHDQVHLLECAWLEILMIGLVWRSMEHPGKLLFAPNLLLDRNQGKCVEGMVEIFDMLLATSSRFRMMNLQGEEFVCLKSIILLNSGISHVEAKKRILNLHPKIFGNKWFPRV
notes: called estrogen receptor isoform 4 in the NCBI database; Endogenous protein detected with a rabbit polyclonal anti-ERα36 antibody; also called ERa36; estrogen receptor isoform 4; source: endogenous, SKBR3 cells (fixed cells; whole-cell extract)
fold increase of interacting pairs (PLA dots) with LPS: ~5 fold
